Measurements: patent US20250002581A1 (VERSITECH, published 2025)

Columns and labels:
Δ42PD1 [1] = biological target: T1, Δ42PD1 (human); assay: flow cytometry on 293T-Δ42PD1 cells, antibody 10 ng/ml; average ± deviation
T1 construct: whole, on cells

Δ42PD1 [2] = biological target: T1, Δ42PD1; assay: flow cytometry on 293T-Δ42PD1 cells, antibody 10 ng/ml, second anti-human Fc antibody
Description: Human IgG1 isotype was used as a negative control.
To exploit the therapeutic activities of CH101 variants, we made various modifications in the constant regions of the chimeric version or humanized version of CH101, thus resulting a serial of CH101 humanized antibodies, including CH101-huIgG1(N297A), CH101-huIgG1(L/S), CH101-huIgG4, huCH101-IgG1, huCH101-IgG4, CH101-huIgG1 (chimeric CH101). The original CH101 (parental, fully murine) was included as the positive control for these humanized versions. […] All humanized antibodies could recognize Δ42PD1 expressed on the cell surface but with different specificity (FIGS. 3A-3I). The detailed statistical analysis elucidated the activity of versions of humanized antibodies in interacting with Δ42PD1 at different specificity and sensitivity (Table 1). […] Due to the limited expression of chimeric versions of CH101 with Fc engineering, including CH101-huIgG1(N297A), CH101-huIgG1(L/S) and CH101-huIgG4, the amount of these antibody was insufficient for fluorescence labelling.

PD-1-GFP = biological target: T2, PD-1-GFP (UniProt Q15116 25-288); assay: flow cytometry on RPMI8866 B cells transfected with PD-1-GFP
T2 construct: whole, on cells; Expressed from a PCDH plasmid in RPMI8866 B cells by electroporation; also called PD-1 expressed on human B cells; not shown: GFP
T2 sequence (Q15116 25-288): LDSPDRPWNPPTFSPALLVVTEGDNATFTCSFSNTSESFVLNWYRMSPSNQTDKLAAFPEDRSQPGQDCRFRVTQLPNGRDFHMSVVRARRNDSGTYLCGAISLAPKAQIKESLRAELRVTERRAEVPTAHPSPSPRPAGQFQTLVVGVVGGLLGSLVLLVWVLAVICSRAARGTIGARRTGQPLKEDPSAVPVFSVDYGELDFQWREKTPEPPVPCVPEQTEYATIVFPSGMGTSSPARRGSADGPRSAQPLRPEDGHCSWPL
Procedure: To test the specificity of anti-Δ42PD1 antibody CH34 as compared with the anti-PD1 antibody (EH12.2H7), RPMI8866 B cells are transfected with a plasmid PCDH expressing Δ42PD-1-GFP, PD-1-GFP or GFP along by Neon electroporation system. Untransfected RPMI8866 B cells are included as controls. Two days after the transfection, the transfection efficiency is determined by flow cytometry analysis on GFP (upper panel). The specificity of anti-Δ42PD1 antibody CH34 and anti-PD1 antibody EH12.2H7 is measured by analysis on PD-1 and Δ42PD1 expression (lower panel).

PD1 = biological target: T3, PD1 (human, UniProt Q15116 25-288); assay: flow cytometry on 293T cells transfected with a PCDH plasmid expressing PD-1
T3 construct: whole, on cells; also called CD279
T3 sequence (Q15116 25-288): as above
Procedure: Untransfected cells are included as controls. Two days after the transfection, the specificity of anti-Δ42PD1 antibody CH34 and anti-PD1 antibody EH12.2H7 is measured by analysis on PD-1 and Δ42PD1 expression.

293T-Δ42PD1 (%) (Δ42PD1 [1]) | 293T-Δ42PD1 (%) (Δ42PD1 [2]) | Binder | also measured
59.2 | – | murine CH101 (antibody, V domains shown, Hybridoma-derived, fully murine monoclonal antibody; a mouse IgG1 control was used beside it in vivo; also called parental murine CH101; original CH101 (parental, fully murine)) VH: EVQLEESGPDLVKPSQSLSLTCTVTGYSITSGFAWHWLRQFPGNRLEWMGYIHYSGSTNYNPSLKSRISITRDTSKNQFFLQLNSVTTEDTATFYCARSDFWGQGTFVTVSS VL: DVVMTQTPLNLSVTFGQPVSISCTSSQSLLDRDGETFMNWLFQRPGQSPKRLIYLVSKLDFGVPDRFTGSGSGTDFTLKISRVEAEDLGIYYCWQGTHFPLTFGGGTKLEIK | –
– | 68.3 | CH101-huIgG1(N297A) (antibody, Detected with a second anti-human Fc antibody) heavy: not shown light: DVVMTQTPLNLSVTFGQPVSISCTSSQSLLDRDGETFMNWLFQRPGQSPKRLIYLVSKLDFGVPDRFTGSGSGTDFTLKISRVEAEDLGIYYCWQGTHFPLTFGGGTKLEIKRTVAAPSVFIFPPSDEQLKSGTASVVCLLNNFYPREAKVQWKVDNALQSGNSQESVTEQDSKDSTYSLSSTLTLSKADYEKHKVYACEVTHQGLSSPVTKSFNRGEC | –
– | 65.7 | CH101-huIgG1(L/S) (antibody, Detected with a second anti-human Fc antibody; not shown: human IgG1 constant region with a modification printed only as '(L/S)') heavy: EVQLEESGPDLVKPSQSLSLTCTVTGYSITSGFAWHWLRQFPGNRLEWMGYIHYSGSTNYNPSLKSRISITRDTSKNQFFLQLNSVTTEDTATFYCARSDFWGQGTFVTVSS light: DVVMTQTPLNLSVTFGQPVSISCTSSQSLLDRDGETFMNWLFQRPGQSPKRLIYLVSKLDFGVPDRFTGSGSGTDFTLKISRVEAEDLGIYYCWQGTHFPLTFGGGTKLEIKRTVAAPSVFIFPPSDEQLKSGTASVVCLLNNFYPREAKVQWKVDNALQSGNSQESVTEQDSKDSTYSLSSTLTLSKADYEKHKVYACEVTHQGLSSPVTKSFNRGEC | –
70.1 | – | CH101-huIgG1 (antibody, also called chimeric CH101; CH101-IgG1) heavy: not shown light: DVVMTQTPLNLSVTFGQPVSISCTSSQSLLDRDGETFMNWLFQRPGQSPKRLIYLVSKLDFGVPDRFTGSGSGTDFTLKISRVEAEDLGIYYCWQGTHFPLTFGGGTKLEIKRTVAAPSVFIFPPSDEQLKSGTASVVCLLNNFYPREAKVQWKVDNALQSGNSQESVTEQDSKDSTYSLSSTLTLSKADYEKHKVYACEVTHQGLSSPVTKSFNRGEC | –
– | 62.8 | CH101-huIgG4 (antibody, Chimeric CH101 on human IgG4; Detected with a second anti-human Fc antibody; also called CH101-IgG4) heavy: not shown light: DVVMTQTPLNLSVTFGQPVSISCTSSQSLLDRDGETFMNWLFQRPGQSPKRLIYLVSKLDFGVPDRFTGSGSGTDFTLKISRVEAEDLGIYYCWQGTHFPLTFGGGTKLEIKRTVAAPSVFIFPPSDEQLKSGTASVVCLLNNFYPREAKVQWKVDNALQSGNSQESVTEQDSKDSTYSLSSTLTLSKADYEKHKVYACEVTHQGLSSPVTKSFNRGEC | –
– | – | anti-Δ42PD1 antibody CH34 (antibody, mouse IgG2b, kappa, V domains shown, Murine monoclonal antibody (msIgG2b isotype control used beside it); both are entered as this one molecule; also called murine CH34; mouse CH34 mAb) VH: EVKLVESGGGLVQPGGSRKLSCAASGFTFSDYGMAWVRQAPGKGPEWVAFISSLAYTIYYADTVTGRFTISRENAKNTLYLEMSSLRSEDTAMYYCARGGAGFAYWGQGTLVTVSA VL: DIQMTQSSSYLSVSLGGRVTITCKASDHINNWLAWYQQKPGNAPRLLISGATSLETGVPSRFSGSGSGKDYTLSITSLQTEDVATYYCQQYWSTPWTFGGGTKLEIKR | binding result (PD-1-GFP): no binding; binding result (PD1): no binding
45.5 | – | hufrCH101-IgG1 (antibody, 97.0% humanized CH101 (641/661) by CDR grafting, human IgG1; also called huCH101-IgG1; huCH101) heavy: not shown light: DVVMTQSPLSLPVTLGQPASISCTSSQSLLDRDGETFMNWFQQRPGQSPRRLIYLVSKLDFGVPDRFSGSGSGTDFTLKISRVEAEDVGVYYCWQGTHFPLTFGGGTKVEIKRTVAAPSVFIFPPSDEQLKSGTASVVCLLNNFYPREAKVQWKVDNALQSGNSQESVTEQDSKDSTYSLSSTLTLSKADYEKHKVYACEVTHQGLSSPVTKSFNRGEC | –
